This is an account of results in PMC12083921.

The target of assay [1] is AKAP79^FAAF, GFP-tagged, full length (human) (human) (UniProt P24588). The assay is described as follows: co-IP.
For assay [2], the target named is AKAP79, mRFP-tagged, full length (human) (human) (UniProt P24588). The assay is described as follows: FRAP.
Assay [3] concerns the target AKAP79^FAAF, mRFP-tagged (human) (human) (UniProt P24588). The assay is described as follows: FRAP.
For assay [4], the target named is AKAP79^AF, GFP-tagged, full length (human) (human) (UniProt P24588). The assay is described as follows: co-IP.
Assay [5] deals with AKAP79^FA, GFP-tagged, full length (human) (human) (UniProt P24588). The assay is described as follows: co-IP.
The target of assay [6] is AKAP150, mRFP-tagged (rat) (rat) (UniProt P24587). The assay is described as follows: FRAP.
Chain of UniProt P24587 (P24587 whole entry): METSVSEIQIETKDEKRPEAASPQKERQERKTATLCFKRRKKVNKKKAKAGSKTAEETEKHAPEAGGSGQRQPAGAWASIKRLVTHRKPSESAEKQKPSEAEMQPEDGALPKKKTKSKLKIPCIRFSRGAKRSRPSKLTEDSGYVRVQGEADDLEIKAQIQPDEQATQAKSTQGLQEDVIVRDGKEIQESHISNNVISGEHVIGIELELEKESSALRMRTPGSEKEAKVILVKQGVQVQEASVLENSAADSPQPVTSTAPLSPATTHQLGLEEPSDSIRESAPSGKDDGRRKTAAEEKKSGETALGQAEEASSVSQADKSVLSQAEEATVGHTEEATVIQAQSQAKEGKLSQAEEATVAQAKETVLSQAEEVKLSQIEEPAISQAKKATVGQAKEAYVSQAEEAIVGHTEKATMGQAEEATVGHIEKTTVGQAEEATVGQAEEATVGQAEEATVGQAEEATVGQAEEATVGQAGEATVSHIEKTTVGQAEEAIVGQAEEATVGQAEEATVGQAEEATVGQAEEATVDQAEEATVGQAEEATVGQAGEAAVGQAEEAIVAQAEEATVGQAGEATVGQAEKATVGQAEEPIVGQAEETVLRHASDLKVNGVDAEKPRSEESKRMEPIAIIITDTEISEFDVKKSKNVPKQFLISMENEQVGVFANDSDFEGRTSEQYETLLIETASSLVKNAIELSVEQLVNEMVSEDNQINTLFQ

Consider “PKA type I regulatory subunit alpha (RIα), endogenous (from UniProt P10644 1-381) (natural protein)”, for which, in assay [1], the fold RI band intensity over controls was 3.55 fold.

Take “PKA type I regulatory subunit alpha, iRFP-tagged (RI-iRFP) (from UniProt P10644 1-381) (natural protein)”: in assay [2], the FRAP recovery half-time was 8.74 s and the FRAP recovery rate constant turned out to be 0.079 s⁻¹. For the same substance, in assay [3], the FRAP recovery half-time stood at 20.5 s and the FRAP recovery rate constant was 0.034 s⁻¹.

Consider “PKA type II regulatory subunit alpha (RIIα), endogenous (from UniProt P13861 1-404) (natural protein)”, for which the percent decrease of RII binding against WT AKAP79 in assay [4] is 22%; in assay [5], 45%; in assay [1], 45%.

For “PKA type II regulatory subunit alpha, iRFP-tagged (RII-iRFP) (from UniProt P13861 1-404) (natural protein)”, the FRAP recovery half-time in assay [2] worked out at 14.4 s; in assay [6], 12.3 s; in assay [3], 11.4 s. Also, the FRAP recovery rate constant was determined as 0.049 s⁻¹ in assay [2], 0.057 s⁻¹ in assay [6] and 0.062 s⁻¹ in assay [3].
